Data on 7 molecules can be found in PMC10907219, “Leishmania profilin interacts with actin through an unusual structural mechanism to control cytoskeletal dynamics in parasites” (The Journal of Biological Chemistry, 2024).

B1: Leishmania major profilin (LmProfilin), wild type (natural protein)
chain: SWQAYVDDSLIGSGNMHSAAIIGAADGSYWAYGGSYVPQPEEVQHIQKCLSDFSFVQSSGVNIYGVKFFGLQCGTDGDCKYIFFKKGAAGGCIYTTKQAFIVAVYGNPGDTSSLQQDLEKNTAHAVTVNPADCNTTVKRIADYLIKLGY
notes: Leishmania major profilin, TriTrypDB LmjF.32.0520, UniProt Q4Q5N1; codon-optimised synthetic gene in pCoofy3; also called WT LmProfilin; LmProf-WT; source: E. coli BL21(DE3), purified (Ni-NTA, tag cleavage with 3C-PreScission protease, gel filtration); not shown: His6, N-terminal, cleaved; GST, N-terminal, cleaved
B2: decamer poly-L-proline peptide (peptide)
peptide: PPPPPPPPPP
notes: ten L-prolines written out from these words; also called poly-L-proline decamer; polyproline decamer; source: synthetic peptide, bought: CASLO ApS

Experiment [1] concerns the target Leishmania major actin (LmActin), ATP-actin monomer (UniProt P45520). The experiment is described as follows: ITC. The note with it: three independent ITC experiments for each protein; parent: 93.5. (Isothermal titration calorimetry measures the heat released or taken up as one component is titrated into another.)
The target of experiment [2] is Leishmania major actin (LmActin), ATP-actin monomer (Leishmania major) (UniProt P45520). As to the kind of experiment: ITC; LmActin (14-19 μM) in the sample cell, profilin (150 μM) in the syringe; 22 °C; G-buffer (2 mM Tris pH 7.5, 0.5 mM β-mercaptoethanol, 0.2 mM CaCl2, 0.2 mM ATP); single set of sites model; three independent experiments.
In experiment [3] the target is T1, Leishmania major actin (LmActin), ATP-actin monomer (Leishmania major, UniProt P45520 1-376, ATP-bound with Ca2+ (G-buffer), monomeric; C-terminal beta-thymosin-His10 tag removed by chymotrypsin; initiator Met absent as in the 8C47 entity (equals Q9U1E8 2-376)). As to the kind of experiment: crystal structure; LmProfilin and LmActin mixed at ~1:1 molar ratio, 4.5 to 6.5 mg/ml, sitting drop; 0.1 M Bis-Tris pH 5.5, PEG4000 26% (w/v), 0.2 M NaCl; ATP-actin monomer with Ca2+. The note with it: both partners purified.

In experiment [4] the target is T1, Leishmania major actin (LmActin), …. As to the kind of experiment: ITC; LmActin (14-19 μM) in the sample cell, profilin (150 μM) in the syringe; 22 °C; G-buffer (2 mM Tris pH 7.5, 0.5 mM β-mercaptoethanol, 0.2 mM CaCl2, 0.2 mM ATP); single set of sites model; three independent experiments. The note with it: both partners purified.
Experiment [5] concerns the target B1. The experiment is described as follows: other fluorescence titration; intrinsic tryptophan fluorescence of profilin (1 μM) with 3 to 3156 μM poly-L-proline decamer; room temperature; 20 mM Hepes pH 8.0, 50 mM NaCl; excitation 295 nm; OneSiteBind fit. The note with it: both partners purified.

With “Leishmania major profilin (LmProfilin), wild type (from UniProt Q4Q5N1) L115S; L119S”, in experiment [1], the Kd was found to be 2.74 µM.

Consider “LmProfilin-K68A (from UniProt Q4Q5N1 2-150) (natural protein)”, for which the Kd in experiment [2] was 3 µM. Regarding “LmProfilin-WH2-SS (Leu115 and Leu119 replaced by serines) (from UniProt Q4Q5N1 2-150) (natural protein)”, the fold reduction of affinity against WT profilin in experiment [2] worked out at 25 fold. “LmProfilin-Y6A (from UniProt Q4Q5N1 2-150) (natural protein)” returned a Kd in experiment [2] of 0.09 µM.

In turn, “LmProfilin-ΔWH2 (entire WH2-like motif deleted) (from UniProt Q4Q5N1 2-150) (natural protein)” had a fold reduction of affinity against WT profilin in experiment [2] of 25 fold. On to B1, for which the “stoichiometry N” value in experiment [3] came to 1. The molecule also had a Kd in experiment [4] of approximately 0.09 µM. The molecule B2 displayed a Kd in experiment [5] of 263 µM.

For orientation: Kd means a measure of binding affinity in units of concentration. Usually stoichiometry N stands for a count of units in the complex or per binding partner.
